Source: US20200239529A1

Molecular target: CXCR4 (human) (UniProt P61073)
Experiment: cell-based or functional assay

UniProt P61073, sequence (P61073 whole entry): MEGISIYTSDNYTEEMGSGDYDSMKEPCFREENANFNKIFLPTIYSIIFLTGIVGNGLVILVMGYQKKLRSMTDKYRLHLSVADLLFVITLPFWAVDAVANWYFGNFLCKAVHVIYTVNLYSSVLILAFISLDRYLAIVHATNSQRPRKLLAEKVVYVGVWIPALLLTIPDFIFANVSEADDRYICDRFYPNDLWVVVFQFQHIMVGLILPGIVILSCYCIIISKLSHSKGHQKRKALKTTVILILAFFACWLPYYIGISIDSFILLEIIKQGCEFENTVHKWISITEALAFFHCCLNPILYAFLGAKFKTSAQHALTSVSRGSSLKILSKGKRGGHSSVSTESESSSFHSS

Substance	IC50 of killing cultured HeLa cells [nM]
T22-DITOX-H6 (from UniProt P00587 26-411)	0.78
T22-PE24-H6	0.99
